# Test results as given in patent publication US8221773B2, “Hydrogels and uses thereof” (University of Delaware, priority 2004, dated 2012).
# “Also recorded” adds a separate entry of the source. Where no end group is shown, it is not given here.
# Legend:
# [1] = Oscillatory rheology of peptide hydrogels (storage and loss moduli); type: physicochemical
# Text: (gel storage modulus of ˜600 Pa). Gel formation continued to mature after two hours with a doubling of the gel modulus to ~1200 Pa. An equilibrium storage modulus of ~1600 Pa was reached after several hours of gel formation. This equilibrium behavior is clearly shown by the linear, frequency independent moduli measurements in FIG. 6B. For comparison, the storage modulus of strawberry gelatin is ˜50 Pa (data not shown).
# In FIG. 6D, a time sweep experiment identical to that performed during the original gel formation was run immediately after the application of 1000% strain at 6 Hz for 180 seconds. The initial modulus of the reforming gel was 650 Pa with 80% of the equilibrium modulus recovered after only 30 minutes making this a quick recovering and relatively strong hydrogel. For comparison, a 2 wt % gelatin hydrogel takes over 4 h to recover 80% of its equilibrium modulus after shear thinning.
# Rheology: Dynamic time and frequency sweep experiments were performed in a strain controlled Rheometrics ARES rheometer with 25.0 mm diameter parallel plate geometry and 0.5 mm gap distance. Lyophilized peptide was dissolved in de-ionized water and buffer or cell growth media solution at 10° C. in order to suppress folding and gelation before the sample is loaded into the rheometer. After the sample was loaded, temperature was increased to either 20° C. or 37° C. Standard low viscosity mineral oil was used to insulate the sides of the plate in order to suppress evaporation. […] Strain sweep experiments were performed to determine the linear viscoelastic regime in which all rheological experiments were performed. Dynamic time sweep experiments were performed with a frequency and strain of 6 rad/s and 1%, respectively. Frequency sweep experiments were performed with a frequency and strain of 0.1-100 rad/s and 5%, respectively.
# [2] = test system: NIH 3T3 fibroblasts; experiment: 3H thymidine cell seeding / proliferation assay; type: cell-based, mouse; details: 2 wt. % hydrogel, 48 hours
# Text: A quantitative assay that could be used to measure the rate of cell proliferation was developed. This allows gels having different material properties and constituent peptide sequences to be compared in terms of how well they support proliferation. Standard colorimetric assays such as the MTT and XTT have proven unsuitable for use with hydrogels of the invention. These assays rely on the ability of cells to metabolize tetrazolium derivatives to their corresponding colored formazan analogs. The analogs permeate into the hairpin hydrogel and become immobilized making subsequent quantification by UV spectroscopy unreliable. This problem has been addressed by utilizing ^3H thymidine-based assays in which thymidine is incorporated into proliferating cells undergoing DNA replication. […] The assay is two-fold. […] Second, a proliferation rate may be determined for a given material by seeding the cells (at optimal density) onto the material and determining the number of cells undergoing DNA replication at discrete time points up to 48 hours when confluency is reached. […] Unincorporated thymidine may be washed out (washes may be assayed until ^3H thymidine is no longer detected) and the cells sacrificed for scintillation counting. […] Therefore, for each new material, similar cell seeding experiments may be performed before rates of proliferation are determined. […]
# [3] = 2 wt %, pH 7.4, 20 mM NaCl, 20° C
# [4] = 2 wt %, pH 9, 1000% strain at 6 Hz for 180 s (FIG. 6D legend)
# [5] = 2 wt %, serum free DMEM cell growth media, 37° C
sequence,measurement,setting,value
VKVKVKVK V^DPPT KVKVKVKV-NH2 (not fully specified (C-terminus)) [MAX1],"rate of self-assembly leading to a rheological response, compared to MAX4","[1]; 1 wt % preparations, 40° C, pH 9.0, 125 mM Borate, 10 mM NaCl",faster
same,G′ values (frequency sweep),"[1]; 2 wt %, cell growth media, 37° C",~2500 Pa
same,"G′ recovered instantaneously after cessation of shear, of initial value","[1]; 2 wt %, cell growth media, 37° C, after 1000% strain at 6 rad/s",~50%
same,hydrogel rigidity (storage modulus),"[1]; 2 wt %, pH 7, NaCl final concentration 150 mM, data not shown",3000 Pa
same,G′ during lag time,[1]; [3],2-3 Pa
same,lag time before G′ increases,[1]; [3],3000 s
same,storage modulus (G′),"[1]; 2 wt %, pH 7.4, 20 mM NaCl, 20° C, after 2.5 hr gelation",~100 Pa
same,lag time before G′ increases,"[1]; 2 wt %, pH 7.4, 150 mM NaCl, 20° C",~1000 s
same,time of gelation to a material of useful rigidity,"[1]; 2 wt %, pH 7.4, 150 mM NaCl, 37° C",about 10 minutes
same,G′ value (frequency sweep),"[1]; 2 wt %, pH 7.4, 150 mM NaCl, 37° C, after 2.5 hours gelation",around 2000 Pa
same,lag time before G′ increases,"[1]; 2 wt %, pH 7.4, 400 mM NaCl, 20° C",does not exist
same,equilibrium storage modulus (G′),"[1]; 2 wt %, pH 7.4, 400 mM NaCl, 20° C, after 2.5 hr gelation",~3000 Pa
same,former rigidity regained immediately after large strain,[1]; [4],~75%
same,time to regain prestrain rigidity,[1]; [4],10 to 20 min
same,equilibrium modulus recovered after 30 minutes,"[1]; 2 wt %, pH 9, after 1000% strain at 6 Hz for 180 seconds",80%
same,initial modulus of the reforming gel,"[1]; 2 wt %, pH 9, immediately after 1000% strain at 6 Hz for 180 seconds",650 Pa
same,storage moduli (rigidity) of gels prepared by protocol 1,"[1]; 2 wt %, pH 9 borate buffer trigger, then bathed in DMEM with 10% calf serum",about 1600 Pa
same,G′ at the end of 2 hours of gelation,[1]; [5],2300 Pa
same,G″ at the end of 2 hours of gelation,[1]; [5],50 Pa
same,G′ values,"[1]; pH 7.4 without added NaCl, after 3 hours, no gelation",approximately 1 Pa
same,crossover concentration separating liquid-like (G″>G′) and gel-like (G′>G″) response,[1]; pH 9,about 1 wt %
same,optimal cell seeding density for 2 day proliferation assays,[2],"40,000 fibroblasts"
same,cell proliferation on hydrogel versus tissue culture polystyrene control,[2]; 3H thymidine counts,more cells have grown on the hydrogel than on the control surface; also recorded: higher than the control
